Data on four molecules can be found in US20230212319A1, “NOVEL ANTIGEN BINDING DOMAINS AND SYNTHETIC ANTIGEN RECEPTORS INCORPORATING THE SAME” (University of Southern California, priority 2020, published 2023).

Where a chain is given by its changes, count along the chain named.

The labels stand for the following.
B1: 22123 (protein)
chain: MALPVTALLLPLALLLHAARPACEVQLLESGGGLIQPGGSLRLSCAASGFTFSSHAMTWVRQAPGKGLEWVSAISGSGDYTHYADSVKGRFTISRDNSKNTVYLQMNSLRAEDSAVYYCAKDEDGGSLLGHRGQGTLVTVSSGTGGGGSGGGGSGGGGSEFDIQMTQSPSSLSASVGDRVTITCKASDHINNWLAWYQQKPGQAPKLLIYGATTLETGVPSRFSGSGSGTDYTLTISSLQPEDFATYYCQQSWNTPWTFGQGTKLEIKRLEDLKNVFPPEVAVFEPSKAEIAHTQKATLVCLATGFYPDHVELSWWVNGKEVHSGVCTDPQPLKEQPALNDSRYCLSSRLRVSATFWQNPRNHFRCQVQFYGLSENDEWTQDRAKPVTQIVSAEAWGRADCGITSASYHQGVLSATILYEILLGKATLYAVLVSALVLMAMVKRKDSRGRAKRSGSGATNFSLLKQAGDVEENPGPTSATMDWIWRILFLVGAATGAHSGPQVQLQESGGGLAQAGGSLRLSCAASGRTFSMGWFRQAPGKEREFVAAITYSGGSPYYASSVRGRFTISRDNAKNTVYLQMNSLKPEDTAVYYCAANPTYGSDWNAENWGQGTQVTVSSGSGGGGSGGGGSGGGGSFEQVQLQQPGAELVKPGASVKMSCKASGYAFSSYWINWMKQKPGQGLEWIGQIYPGDGDTNYNGKFKGRATLTADTSSSTAYMQLSSLTSEDSAVYFCARSITTVVGCAMDYWGQGTSVTVSSTRIQNPDPAVYQLRDSKSSDKSVCLFTDFDSQTNVSQSKDSDVYITDKCVLDMRSMDFKSNSAVAWSNKSDFACANAFNNSIIPEDTFFPSSDVPCDVKLVEKSFETDTNLNFQNLSVIGFRILLLKVAGFNLLMTLRLWSSRAKRSGSGVKQTLNFDLLKLAGDVESNPGPSRGHMTEYKPTVRLATRDDVPRAVRTLAAAFADYPATRHTVDPDRHIERVTELQELFLTRVGLDIGKVWVADDGAAVAVWTTPESVEAGAVFAEIGPRMAELSGSRLAAQQQMEGLLAPHRPKEPAWFLATVGVSPDHQGKGLGSAVVLPGVEAAERAGVPAFLETSAPRNLPFYERLGFTVTADVEVPEGPRTWCMTRKPGA
B2: 22132 (protein)
chain: B1 chain with Q502E, Q506V, A513V, S560D, R563K
B3: 22068 (protein)
chain: MALPVTALLLPLALLLHAARPQLQLQESGPGLVKPSETLSLTCTVSGDSISSGDYYWGWIRQPPGKGLEWIGHIYYSGVTYYNPSLKSRVTISVDTSRNQFSLKLSSVTAADTAVYYCTREDSSNWRSRGQGTLVTVSSLEGGGGSGGGGSGGGGSVEDLKNVFPPEVAVFEPSKAEIAHTQKATLVCLATGFYPDHVELSWWVNGKEVHSGVCTDPQPLKEQPALNDSRYCLSSRLRVSATFWQNPRNHFRCQVQFYGLSENDEWTQDRAKPVTQIVSAEAWGRADCGITSASYHQGVLSATILYEILLGKATLYAVLVSALVLMAMVKRKDSRGRAKRSGSGATNFSLLKQAGDVEENPGPTSMDWIWRILFLVGAATGAHSFEVQLLESGGGLIQPGGSLRLSCAASGFTFSSHAMTWVRQAPGKGLEWVSAISGSGDYTHYADSVKGRFTISRDNSKNTVYLQMNSLRAEDSAVYYCAKDEDGGSLLGHRGQGTLVTVSSTRIQNPDPAVYQLRDSKSSDKSVCLFTDFDSQTNVSQSKDSDVYITDKCVLDMRSMDFKSNSAVAWSNKSDFACANAFNNSIIPEDTFFPSPESSCDVKLVEKSFETDTNLNFQNLSVIGFRILLLKVAGFNLLMTLRLWSSRAKRSGSGVKQTLNFDLLKLAGDVESNPGPSRGHMTEYKPTVRLATRDDVPRAVRTLAAAFADYPATRHTVDPDRHIERVTELQELFLTRVGLDIGKVWVADDGAAVAVWTTPESVEAGAVFAEIGPRMAELSGSRLAAQQQMEGLLAPHRPKEPAWFLATVGVSPDHQGKGLGSAVVLPGVEAAERAGVPAFLETSAPRNLPFYERLGFTVTADVEVPEGPRTWCMTRKPGA
B4: 22226 (protein)
chain: MALPVTALLLPLALLLHAARPACEVQLLESGGGLIQPGGSLRLSCAASGFTFSSHAMTWVRQAPGKGLEWVSAISGSGDYTHYADSVKGRFTISRDNSKNTVYLQMNSLRAEDSAVYYCAKDEDGGSLLGHRGQGTLVTVSSGTGPQGIFGQPGYINEFDIQMTQSPSSLSASVGDRVTITCKASDHINNWLAWYQQKPGQAPKLLIYGATTLETGVPSRFSGSGSGTDYTLTISSLQPEDFATYYCQQSWNTPWTFGQGTKLEIKRLEDLKNVFPPEVAVFEPSKAEIAHTQKATLVCLATGFYPDHVELSWWVNGKEVHSGVCTDPQPLKEQPALNDSRYCLSSRLRVSATFWQNPRNHFRCQVQFYGLSENDEWTQDRAKPVTQIVSAEAWGRADCGITSASYHQGVLSATILYEILLGKATLYAVLVSALVLMAMVKRKDSRGRAKRSGSGATNFSLLKQAGDVEENPGPTSATMDWIWRILFLVGAATGAHSGPEVQLVESGGGLVQAGGSLRLSCAASGRTFSMGWFRQAPGKEREFVAAITYSGGSPYYADSVKGRFTISRDNAKNTVYLQMNSLKPEDTAVYYCAANPTYGSDWNAENWGQGTQVTVSSGSGGGGSGGGGSGGGGSFEQVQLQQPGAELVKPGASVKMSCKASGYAFSSYWINWMKQKPGQGLEWIGQIYPGDGDTNYNGKFKGRATLTADTSSSTAYMQLSSLTSEDSAVYFCARSITTVVGCAMDYWGQGTSVTVSSTRIQNPDPAVYQLRDSKSSDKSVCLFTDFDSQTNVSQSKDSDVYITDKCVLDMRSMDFKSNSAVAWSNKSDFACANAFNNSIIPEDTFFPSPESSCDVKLVEKSFETDTNLNFQNLSVIGFRILLLKVAGFNLLMTLRLWSSRAKRSGSGVKQTLNFDLLKLAGDVESNPGPSRGHMTEYKPTVRLATRDDVPRAVRTLAAAFADYPATRHTVDPDRHIERVTELQELFLTRVGLDIGKVWVADDGAAVAVWTTPESVEAGAVFAEIGPRMAELSGSRLAAQQQMEGLLAPHRPKEPAWFLATVGVSPDHQGKGLGSAVVLPGVEAAERAGVPAFLETSAPRNLPFYERLGFTVTADVEVPEGPRTWCMTRKPGA

The first experiment concerns Nalm6 cells. Put plainly: JNG assay, co-culture with Nalm6 cells. The experiment is classed as cell-based. Particulars: co-culture with Nalm6. Summed up:
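NFAT-driven GFP in stably SAR-transduced Jurkat cells after coculture (E:T ~1:2; ~4–18 h), measured by flow cytometry and expressed as % GFP+ cells over parental Jurkat-NFAT-GFP cells.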
Consider B1, for which the “NFAT-GFP ASSAY: Nalm6” value was 5+ (refer to approximately 5%, 10%, 20%, 30%, 40% and 50% GFP positive cells).
On the same count and under the same terms, the same measure for B2: 5+ (refer to approximately 5%, 10%, 20%, 30%, 40% and 50% GFP positive cells); for B3: “+/- (refer to approximately 5%, 10%, 20%, 30%, 40% and 50% GFP positive cells)”.
For the molecule B4, the “NFAT-GFP ASSAY: Nalm6” value is “+ (refer to approximately 5%, 10%, 20%, 30%, 40% and 50% GFP positive cells)”.

A further experiment concerns RAJI cells. Put plainly: JNG assay, co-culture with RAJI cells. It counts as cell-based. As to conditions: JNG cells expressing construct, co-culture with Raji. An outline of the steps: (§1)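 Jurkat NFAT-GFP (JNG) cells stably transduced with SARs by lentivirus, with drug selection where the construct carried a resistance gene, then co-cultured with target cells at E:T ~1:2 for ~4–18 h. % GFP-positive cells measured by FACS against parental JNG; +/- to 5+ correspond to ~5–50% GFP-positive.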
Consider B3, for which the “NFAT-GFP ASSAY: Raji” value was “+ (refer to approximately 5%, 10%, 20%, 30%, 40% and 50% GFP positive cells)”.
Consider B4, for which the “NFAT-GFP ASSAY: Raji” value is “+/- (refer to approximately 5%, 10%, 20%, 30%, 40% and 50% GFP positive cells)”.

The subject of another experiment is L363 cells. Nature of the experiment: JNG assay, co-culture with L363 cells. It counts as cell-based. As to conditions: co-culture with L363. Summed up: as §1
Consider B1, for which the “NFAT-GFP ASSAY: L363” value was 3+ (refer to approximately 5%, 10%, 20%, 30%, 40% and 50% GFP positive cells).
Same read-out and setting: in the case of B2 it was 4+ (refer to approximately 5%, 10%, 20%, 30%, 40% and 50% GFP positive cells).
Same read-out and setting: in the case of B3 it was “+ (refer to approximately 5%, 10%, 20%, 30%, 40% and 50% GFP positive cells)”; in that of B4, “+ (refer to approximately 5%, 10%, 20%, 30%, 40% and 50% GFP positive cells)”.

Another experiment has as its system RS;411. Put plainly: JNG assay, co-culture with RS;411 cells. The experiment is classed as cell-based. Particulars: co-culture with RS411. An outline of the steps: as §1
Regarding B1, the “NFAT-GFP ASSAY: RS411” value was 4+ (refer to approximately 5%, 10%, 20%, 30%, 40% and 50% GFP positive cells).
On the same count and under the same terms, in the case of B2 it was 4+ (refer to approximately 5%, 10%, 20%, 30%, 40% and 50% GFP positive cells); in that of B3, “+/- (refer to approximately 5%, 10%, 20%, 30%, 40% and 50% GFP positive cells)”; in that of B4, “+/- (refer to approximately 5%, 10%, 20%, 30%, 40% and 50% GFP positive cells)”.
